Bounds are passed on as bounds.

For the first assay, the target named is HLA-A*02:01. In words: IEDB peptide-MHC binding, purified MHC/direct/fluorescence; filed as Kd, often an IC50 or EC50 that approximates it; ≥ and ≤ were set here for values at or beyond the usual limits of such assays. As to conditions: source organism: Francisella tularensis.
A word on the Kd: it is the constant that tells how readily two partners part at equilibrium. QLVGRVFAGL had a Kd of 2 nM.

Still in this assay, the particulars now being: source organism: Francisella tularensis subsp. tularensis SCHU S4.
The sequence FLMPFMHYIV yielded an equilibrium dissociation constant (Kd) of at most 1 nM. The sequence ILLPWFVDL gave a Kd of at most 1 nM.

The sequence KLWGLVDFV came in with a Kd of at most 1 nM. GIDGNVTFTV registered an equilibrium dissociation constant (Kd) of at most 1 nM.

KLAKKVLSRV yielded a Kd of 10 nM. The same measure, in the same setting: to LMWDNVGLV belongs at most 1 nM; to KIDSTSFSV, at most 1 nM; to IMSSFEFQV, at most 1 nM.

Turning to KLLPEGYWV, the Kd was at most 1 nM.

In turn, WLGNHGFEV displayed a Kd of at most 1 nM. In turn, KLLGQINLV showed a Kd of at most 1 nM. Same read-out and setting: to KLGGYVSFV belongs at most 1 nM. Same read-out and setting: next, GLNLVVSSSV: 20 nM; VLPGVVVPIV: 15 nM; RLIGHISTL: at most 1 nM. The same measure, in the same setting: to ILDPKTGLV belongs 15 nM; to FLSPNQVTNV, at most 1 nM; to FLSNVGHYV, at most 1 nM. With GTDGFPFKL, the Kd was 24 nM. This counts as double-digit nanomolar.

Sequence QLWPEEIGV had a Kd of at most 1 nM. On the same count and under the same terms, to NLDTSPFFV belongs at most 1 nM; to WLGETFHGL, at most 1 nM.

Another assay addresses HLA-A*24:02. The assay is described as above. The settings on record: source organism: Francisella tularensis subsp. tularensis SCHU S4.
TYPNSQQQTL displayed a Kd of 180 nM. On the same count and under the same terms, to NYQKWTAPL belongs 5 nM. The same measure, in the same setting: to AYVKNGYFEI belongs 76 nM; to IYNNYDVLF, 23 nM; to PYLKQGIEF, 8 nM. Same read-out and setting: to NYNNLDDKF belongs 3 nM. The sequence SYSYLVYLI returned a Kd of 3 nM. On to WYTNLDTDKF, for which the dissociation constant (Kd) was 255 nM. Sequence IYSDKGLLF showed a Kd of 4 nM. Against the preceding sequence, the Kd is about 64-fold lower.

As to LYQPLLDLL, the Kd was determined as 30 nM. This Kd is about 7.5-fold higher than that of the sequence before. The same measure, in the same setting: to SYDRWGIPI belongs 33 nM; to KYWNNHRQGI, 435 nM. The same measure, in the same setting: next, LYSENGHFSW: 18 nM; YYLDRGYLDF: 10 nM; PYLKSFLSF: 20 nM. Sequence TYTSTLHPRL came in with a Kd of 200 nM.

RYTDSEYFVI: the Kd is 15 nM. Compared with the last sequence, the Kd is about 13-fold lower. On the same count and under the same terms, to SYTFTQTFF belongs 24 nM. On the same count and under the same terms, to NYVDSAQLAF belongs 9 nM; to IFWQFHQLL, 10 nM.

In another assay the target is HLA-B*07:02. The description is as above. As to conditions: source organism: Francisella tularensis.
In turn, APFANTYSAL displayed a Kd of 22 nM.

Still in this assay, the particulars now being: source organism: Francisella tularensis subsp. tularensis SCHU S4.
The sequence IPRTMLPLSL gave a Kd of 3 nM. Turning to MPVSRQISRM, the dissociation constant Kd came to 665 nM. For the sequence LPRYNIATSV, the equilibrium dissociation constant (Kd) stood at 3 nM. The sequence SPQANNLYL registered a dissociation constant (Kd) of 74 nM. Same read-out and setting: next, IPMTLTASPL: 4 nM. Same read-out and setting: next, FPINLNSSQL: 62 nM. In turn, VPRKPLLSYI gave a Kd of 38 nM.

APYPNVVEM returned a Kd of 127 nM. Compared with the last sequence, the Kd is about 3.3-fold higher. In turn, TPNGNIPTL returned a Kd of 46 nM.

Take FPATGQNIYM: the dissociation constant Kd stood at 588 nM.

Sequence APAFVVIADL showed a Kd of 114 nM. Against the preceding sequence, the Kd is about 5.2-fold lower. Turning to FPKAFINIV, the Kd was 151 nM.

Take FPICSVFKFL: the Kd is 251 nM. This Kd lies about 1.7-fold higher than the previous one. Still for that read-out and setting: next, SPMEHSKRI: 62 nM; FPICSTYKFL: 226 nM; SPMGPLAVSF: 18 nM.

In a further assay the target is HLA-B*07:02. Description: IEDB peptide-MHC binding, purified MHC/competitive/fluorescence; filed as Kd, often an IC50 or EC50 that approximates it; ≥ and ≤ were set here for values at or beyond the usual limits of such assays. The settings on record: source organism: Francisella tularensis subsp. tularensis SCHU S4.
As to FPQANLTGGI, the Kd turned out to be 2140 nM.

In turn, APAWFQASA registered an equilibrium dissociation constant (Kd) of at least 5000 nM. Still for that read-out and setting: next, FPNINFSPEV: at least 5000 nM.

Values taken from the Immune Epitope Database (IEDB).
